Test results published in the supplement of paper PMC12042874.
± gives the uncertainty stated by the source.

assay: amyloid nucleation score (Sup35N fusion, yeast selection) (log enrichment); library NNK3; higher = more nucleation; inactive = no reads after selection
How it was run: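 Output and input plasmid inserts were sequenced by Illumina after psi-negative yeast carrying Sup35N fused to peptides of 20 random codons had been induced 24 hours with 100 μM copper sulfate and grown 7 days at 30°C on medium lacking adenine and uracil. The nucleation score is the DiMSum log enrichment of output over input reads, centred on the mode score of non-aggregating sequences. Sequences with under 100 input reads were excluded.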

Substance | amyloid nucleation score
KVIKDNLEVCFLKSMWC | inactive
KVLQPANVLRLTGFVSVRGV | inactive
KVRSARVRMHHNRYDKEMSG | inactive
KVTMPLQSYTLYSMYICLLS | inactive
KWLVPTQG | inactive
KWNCHLVLPLWIPGLVMMGR | inactive
KWNHYWDIVFCTSYFNSTFM | 2.29 ± 0.066
KYGWVLFYGCYYCGHGWTNL | inactive
KYLWDLATHNIFAGSKMMDN | inactive
KYNANYQSSYNIVRLYRVFW | inactive
KYPNRKLF | inactive
KYPSYLNLSCVAVKYVWCSE | 1.94 ± 0.071
KYQLHYLDVFFYDVV | inactive
KYWSLGNGCTTKRWSGGFVS | inactive
KYYFRGWKTEPVTWFGCQAM | 0.488 ± 0.2
KYYTSRNRWRYMV | -0.291 ± 0.68
LAGCNPLASARFVWVI | inactive
LAINIFWLEDRCSPIGCNAG | inactive
LALAVGQRDRVLFVKVPVLR | inactive
LAMAPITKSSKLMLAFMR | inactive
LANSKLDCLSVHLFEHNCLA | 1.95 ± 0.069
LAQSQNVVEARINSPWWDSP | inactive
LASKLDCVLPHYNVGRCNDP | 0.297 ± 0.7
LAVLIVDKPYADETHRLLVR | inactive

Substance | amyloid nucleation score
LCAFHKRNRQEVACVMFVKS | inactive
LCAYNSTWSACNWGFIHNSL | 2.58 ± 0.051
LCECR | inactive
LCESSLKDNGVTSLFVWVLK | inactive
LCFARGLRCTSSVAVESGD | inactive
LCIGVDLKPCYGSVDRYVNL | inactive
LCILMMKVKVCVGNGLFLSA | inactive
LCKFYRYRTLRHSEEKPCHH | inactive
LCLRRGGFVRIGVWVFVFYG | inactive
LCLSTIV | inactive
LCNKWY | inactive
LCRGCSLGACGNSGLKYCGW | inactive
LCRLGSSRSVSGVRLGCTLR | inactive
LCSDLVFHNR | inactive
LCSGVHHFVRNTIVKGVCDG | inactive
LCSLCNSLAQWRYNSEWLYT | inactive
LCSYSIESFALLHVFNEAFQ | inactive
LCTNLYWVQFIMEPEEGVIQ | 1.54 ± 0.082
LCTYVFYPIANSSALSLNKV | inactive
LCVFKWLILREYISITHDSI | inactive
LCWKFAPRMLVYMMGY | inactive
LCYALQEGRRWEGYEIRNSM | inactive
LCYNVKSVCGQTMLQLVE | inactive
LDAYDSLLFL | inactive

Substance | amyloid nucleation score
LDFDVGI | inactive
LDFKIPRN | inactive
LDHYGLSLAHDVRRGVCCFW | 1.13 ± 0.14
LDLNLRVRVLFKFTTGLTFF | inactive
LDNKFSALGCFANARFK | inactive
LDRCNFISTILPQIRFSV | inactive
LDRKFGLRYNGTSYTCDSMV | inactive
LDSIPSMSTVLLMSASGCND | inactive
LDTDGSICCCPRAIAHLL | inactive
LDTDWLGYSSLP | inactive
LEFRYPAMWLKFSLYVWTLI | inactive
LEGQMTVRRDFTRFDW | inactive
LEGSYPRADIAVNVFTVFTQ | inactive
LELDCASNRLSPNGIYMYFW | 0.123 ± 0.35
LENSNFWSCSWISRYIYIRN | inactive
LESEASGYKMSKVRVAQCRR | inactive
LETFI | inactive
LEYAVVKSHQREESSSTCLG | inactive
LEYYAS | inactive
LFDCFVILKDFACEFKNIPD | inactive
LFEHLRW | 0.685 ± 0.2
LFEYGYCMIGIQLLKRY | inactive
LFFHHVKLRH | inactive
LFFKP | inactive

Substance | amyloid nucleation score
LFFRLHYS | inactive
LFFYSYTSFSIC | inactive
LFGTNQYYNY | inactive
LFHHNCWNSNLSKVYMPACN | 0.761 ± 0.1
LFIFNGCAM | 2.31 ± 0.057
LFIRP | inactive
LFITLGAV | inactive
LFKMSV | inactive
LFKYGALLCVEVQY | inactive
LFLLFFSAHGQYIRCAIIVR | inactive
LFNDLVAHKGPDYITYATCV | inactive
LFRFGI | -0.005 ± 0.22
LFRLFVSEARTRLNCRTCNF | -0.285 ± 0.64
LFRVDRPTNCGPYFAYHEYT | inactive
LFSELKISSVWCDL | inactive
LFSTCSSWTQFLLRPAVSAV | inactive
LFVRVCSANYFSWEYDSRVN | inactive
LFWPICFHNMTFVLYTSLLN | inactive
LFWSNLWRRDMNISVSNYWL | 1.69 ± 0.11
LFYFVWRVYKFILWSG | inactive
LFYGNW | inactive
LFYIPFCMSFWTSKDRNA | inactive
LGAAFCAPSSSYGKMGP | inactive
LGAKILCNWRVVHDSSCQHL | inactive

Substance | amyloid nucleation score
LGASRGMFVKNLLIMASHSR | inactive
LGCKESSVPPARVRGPGQAI | inactive
LGFESCVHRGKIKAVVMTST | inactive
LGGCPSNDGSFYVSSSLLHV | inactive
LGGLCPCF | inactive
LGIRWLLACWVVENLDFPNI | -0.719 ± 1
LGKHRANHCMAGQDVAYKWV | -0.831 ± 1.1
LGLECVGPFCKGVYFWLDG | inactive
LGLISIAESRRLSRSDSMWW | inactive
LGMGSSDYRGRYRSNS | inactive
LGNRQVRNLATYPDNYLTCT | inactive
LGQFQCQE | inactive
LGYDWRDVNNGK | inactive
LHCTLSNSLSYLHDIQQLLH | inactive
LHESRVAGSNQLSRRDHERW | inactive
LHEVLF | inactive
LHGNYVGQLLDLEIPVRGWI | inactive
LHIVNCCQPKHTRFVFQWYW | 1.89 ± 0.1
LIDKCGKHQTFMGC | inactive
LIDMFIFNARVSNGDFYCPN | 0.718 ± 0.13
LIDMVVFNYKLVIRVRKGSL | inactive
